Test results as given in paper PMC6561319, “Proteomic Profiling, Transcription Factor Modeling, and Genomics of Evolved Tolerant Strains Elucidate Mechanisms of Vanillin Toxicity in Escherichia coli” (mSystems, 2019).

B1: DkgA (Escherichia coli K-12) (protein)
chain: ANPTVIKLQDGNVMPQLGLGVWQASNEEVITAIQKALEVGYRSIDTAAAYKNEEGVGKALKNASVNREELFITTKLWNDDHKRPREALLDSLKKLQLDYIDLYLMHWPVPAIDHYVEAWKGMIELQKEGLIKSIGVCNFQIHHLQRLIDETGVTPVINQIELHPLMQQRQLHAWNATHKIQTESWSPLAQGGKGVFDQKVIRDLADKYGKTPAQIVIRWHLDSGLVVIPKSVTPSRIAENFDVWDFRLDKDELGEIAKLDQGKRLGPDPDQFGG
B2: GltA (citrate synthase) (Escherichia coli K-12) (protein)
chain: MADTKAKLTLNGDTAVELDVLKGTLGQDVIDIRTLGSKGVFTFDPGFTSTASCESKITFIDGDEGILLHRGFPIDQLATDSNYLEVCYILLNGEKPTQEQYDEFKTTVTRHTMIHEQITRLFHAFRRDSHPMAVMCGITGALAAFYHDSLDVNNPRHREIAAFRLLSKMPTMAAMCYKYSIGQPFVYPRNDLSYAGNFLNMMFSTPCEPYEVNPILERAMDRILILHADHEQNASTSTVRTAGSSGANPFACIAAGIASLWGPAHGGANEAALKMLEEISSVKHIPEFVRRAKDKNDSFRLMGFGHRVYKNYDPRATVMRETCHEVLKELGTKDDLLEVAMELENIALNDPYFIEKKLYPNVDFYSGIILKAMGIPSSMFTVIFAMARTVGWIAHWSEMHSDGMKIARPRQLYTGYEKRDFKSDIKR
notes: hexamer
B3: YqhD (Escherichia coli K-12) (protein)
chain: MNNFNLHTPTRILFGKGAIAGLREQIPHDARVLITYGGGSVKKTGVLDQVLDALKGMDVLEFGGIEPNPAYETLMNAVKLVREQKVTFLLAVGGGSVLDGTKFIAAAANYPENIDPWHILQTGGKEIKSAIPMGCVLTLPATGSESNAGAVISRKTTGDKQAFHSAHVQPVFAVLDPVYTYTLPPRQVANGVVDAFVHTVEQYVTKPVDAKIQDRFAEGILLTLIEDGPKALKEPENYDVRANVMWAATQALNGLIGAGVPQDWATHMLGHELTAMHGLDHAQTLAIVLPALWNEKRDTKRAKLLQYAERVWNITEGSDDERIDAAIAATRNFFEQLGVPTHLSDYGLDGSSIPALLKKLEEHGMTQLGENHDITLDVSRRIYEAAR

Tests used:
[1] = substrate: COc1cc(C=O)ccc1O; assay: purified protein; format: biochemical, Escherichia coli; details: 0.1 mM NADPH, 100 mM phosphate pH 7.4, 37°C
[2] = substrate: O=C(O)CC(=O)C(=O)O; assay: purified protein; format: biochemical, Escherichia coli; details: 67 μM acetyl-CoA (fixed), 0.2 mM DTNB, 100 mM Tris-HCl pH 8, 37°C

Protein	Km [1] [µM]	kcat [1] [s⁻¹]	Km [2] [µM]	Vmax [2] [µmol/min/mg]	kcat [2] [s⁻¹]	kcat/Km [2] [M⁻¹ s⁻¹]
B1	200 ± 80	0.0467				
B2			154 ± 25	4.8	3.87 ± 0.233	25100 ± 1470
B3	270 ± 40	0.103				
